The target in this assay is T1, human ANG-2 (R&D Systems) (human, UniProt O15123 68-496, limits assumed, biotinylated in the Tie-2 competition ELISA (site not stated)).
T1 construct: Protein bought from R&D Systems; It was unlabelled in the Octet assay and biotinylated in the ELISA; also called angiopoietin-2; ANGPT2
T1 sequence: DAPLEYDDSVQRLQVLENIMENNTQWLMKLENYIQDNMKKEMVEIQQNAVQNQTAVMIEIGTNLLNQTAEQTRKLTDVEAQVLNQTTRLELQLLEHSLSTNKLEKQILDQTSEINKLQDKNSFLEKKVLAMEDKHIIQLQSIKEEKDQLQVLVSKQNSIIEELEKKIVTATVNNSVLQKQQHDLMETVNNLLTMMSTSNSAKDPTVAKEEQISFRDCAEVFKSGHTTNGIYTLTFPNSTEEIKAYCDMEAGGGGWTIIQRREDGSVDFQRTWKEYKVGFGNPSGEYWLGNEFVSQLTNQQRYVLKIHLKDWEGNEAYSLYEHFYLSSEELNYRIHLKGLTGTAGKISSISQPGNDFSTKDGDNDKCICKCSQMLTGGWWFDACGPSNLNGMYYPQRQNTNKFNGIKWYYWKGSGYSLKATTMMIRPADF
In words: BLI (Octet QKe); HCAb captured on anti-hIgG Fc tips, ANG-2 at 20 to 500 nM in solution. As for the experimental part: Affinity measurements were performed using a fortéBIO OCTET® QK^e system equipped with anti-hlgG Fc capture (AHC) biosensor tips and strepavidin-coated biosensors (fortéBIO, Menlo Park, Calif.). For AHC affinity measurement, purified anti-ANG-2 HCAb A33A8 was tested for its binding capacity with AHC sensor tips. Tips were loaded using 20 μg/ml anti-ANG-2 A33A8 HCAb. Loading proceeded for 300 sec resulting in capture levels of between 1.8 and 2 nm. ANG-2 (R & D systems) antigen was prepared for binding analysis by dilution to concentrations of 20 to 500 nM in 1×PBS. Association was initiated and monitored for 200 sec, after which tips were transferred to 1×PBS buffer without Factor protein (Gibco, PBS pH 7.2), in order to monitor dissociation. Anti-ANG-2 A33A8 HCAb binding activity was then monitored in real time using bio-layer interferometry analysis. Antigen binding affinities were calculated for the tested ANG-2 based on the measured association (“Kassoc”) and dissociation (“Kdissoc”) constants. Data were processed and analyzed using the OCTET® data analysis software 6.4 (fortéBIO) (FIG. 4).

A value given as a limit tells only on which side of the number the result lay.

B1: A33A8 human anti-ANG-2 HCAb (antibody, human IgG1, V domains shown)
VH: QVQLVESGGGLVQPGGSLRLSCAASGFTFSSYWMHWVRQAPGKGLVWVSRINSDGSSTSYADSVKGRFTISRDNAKNTLYLQMNSLRAEDTAVYYCAREGYSSGGQFDYWGQGTLVTVSS
notes: also called anti-ANG-2 HCAb A33A8; anti-ANG-2 A33A8 HCAb
The molecule B1 yielded a Kd of less than 1 pM.

For the origin of these results see patent US20190248882A1 (ALLERGAN, published 2019).
